Laboratory results taken from patent US20220119490A1 (Genentech, published 2022).
Substitutions are numbered along the chain they refer to. Values belong to the binder of their own block, whether it stands above or below them.

Columns and labels:
[1] = molecular target: T1, PTPRZ1 expressed on cells (human, UniProt P23471 25-2315); experiment: cell surface interaction assay: streptavidin-tetramerized biotinylated ECD on transfected cells, immunofluorescence
T1 construct: whole, on cells
Description: FIG. 3H is a schematic showing the design of the cell surface interaction assay.

[2] = molecular target: T2, PTPRD G285E variant extracellular domain (human, UniProt P23468 21-1265); experiment: extracellular interaction screen: pentameric PTPRD variant ECD on ECD-Fc prey (FIG. 5L)
T2 construct: extracellular domain; also called IG3 mutant
T2 sequence (looked up): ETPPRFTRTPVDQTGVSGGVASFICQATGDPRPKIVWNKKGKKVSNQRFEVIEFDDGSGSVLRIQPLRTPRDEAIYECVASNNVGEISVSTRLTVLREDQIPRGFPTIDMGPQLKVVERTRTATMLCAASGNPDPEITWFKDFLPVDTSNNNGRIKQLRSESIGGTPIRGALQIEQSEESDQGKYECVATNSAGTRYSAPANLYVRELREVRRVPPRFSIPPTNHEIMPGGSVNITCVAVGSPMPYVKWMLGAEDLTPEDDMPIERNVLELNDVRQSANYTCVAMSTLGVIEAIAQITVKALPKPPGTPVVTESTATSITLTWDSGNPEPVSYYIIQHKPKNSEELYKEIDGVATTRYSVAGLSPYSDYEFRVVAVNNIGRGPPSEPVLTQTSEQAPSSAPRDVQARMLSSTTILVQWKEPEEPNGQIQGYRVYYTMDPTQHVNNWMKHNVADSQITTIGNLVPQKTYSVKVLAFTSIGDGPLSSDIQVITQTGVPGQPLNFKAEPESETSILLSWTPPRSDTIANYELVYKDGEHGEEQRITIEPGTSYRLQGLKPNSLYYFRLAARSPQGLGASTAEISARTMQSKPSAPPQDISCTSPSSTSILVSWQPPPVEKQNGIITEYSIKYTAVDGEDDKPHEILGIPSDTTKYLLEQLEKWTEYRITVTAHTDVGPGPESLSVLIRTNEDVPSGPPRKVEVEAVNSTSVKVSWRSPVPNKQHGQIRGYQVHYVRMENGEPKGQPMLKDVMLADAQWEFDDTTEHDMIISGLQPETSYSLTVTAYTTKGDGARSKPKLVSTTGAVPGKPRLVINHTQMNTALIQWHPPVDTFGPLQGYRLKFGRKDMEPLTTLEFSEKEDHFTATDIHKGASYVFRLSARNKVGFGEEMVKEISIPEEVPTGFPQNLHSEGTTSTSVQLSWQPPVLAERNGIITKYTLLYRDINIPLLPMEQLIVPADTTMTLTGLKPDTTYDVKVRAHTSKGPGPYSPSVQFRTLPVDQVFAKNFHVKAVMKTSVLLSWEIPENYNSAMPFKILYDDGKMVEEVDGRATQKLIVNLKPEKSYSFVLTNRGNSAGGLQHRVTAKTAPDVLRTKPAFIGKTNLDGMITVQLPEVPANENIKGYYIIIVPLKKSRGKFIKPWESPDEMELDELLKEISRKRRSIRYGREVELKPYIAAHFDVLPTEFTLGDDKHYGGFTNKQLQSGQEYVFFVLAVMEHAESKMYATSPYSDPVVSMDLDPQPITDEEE

[3] = molecular target: T3, PTPRD P249L variant extracellular domain (human, UniProt P23468 21-1265); experiment: as above
T3 construct: extracellular domain; also called IG3 mutant
T3 sequence (looked up): T2 sequence (looked up) with P229L, E265G

T1 sequence (P23471 25-2315): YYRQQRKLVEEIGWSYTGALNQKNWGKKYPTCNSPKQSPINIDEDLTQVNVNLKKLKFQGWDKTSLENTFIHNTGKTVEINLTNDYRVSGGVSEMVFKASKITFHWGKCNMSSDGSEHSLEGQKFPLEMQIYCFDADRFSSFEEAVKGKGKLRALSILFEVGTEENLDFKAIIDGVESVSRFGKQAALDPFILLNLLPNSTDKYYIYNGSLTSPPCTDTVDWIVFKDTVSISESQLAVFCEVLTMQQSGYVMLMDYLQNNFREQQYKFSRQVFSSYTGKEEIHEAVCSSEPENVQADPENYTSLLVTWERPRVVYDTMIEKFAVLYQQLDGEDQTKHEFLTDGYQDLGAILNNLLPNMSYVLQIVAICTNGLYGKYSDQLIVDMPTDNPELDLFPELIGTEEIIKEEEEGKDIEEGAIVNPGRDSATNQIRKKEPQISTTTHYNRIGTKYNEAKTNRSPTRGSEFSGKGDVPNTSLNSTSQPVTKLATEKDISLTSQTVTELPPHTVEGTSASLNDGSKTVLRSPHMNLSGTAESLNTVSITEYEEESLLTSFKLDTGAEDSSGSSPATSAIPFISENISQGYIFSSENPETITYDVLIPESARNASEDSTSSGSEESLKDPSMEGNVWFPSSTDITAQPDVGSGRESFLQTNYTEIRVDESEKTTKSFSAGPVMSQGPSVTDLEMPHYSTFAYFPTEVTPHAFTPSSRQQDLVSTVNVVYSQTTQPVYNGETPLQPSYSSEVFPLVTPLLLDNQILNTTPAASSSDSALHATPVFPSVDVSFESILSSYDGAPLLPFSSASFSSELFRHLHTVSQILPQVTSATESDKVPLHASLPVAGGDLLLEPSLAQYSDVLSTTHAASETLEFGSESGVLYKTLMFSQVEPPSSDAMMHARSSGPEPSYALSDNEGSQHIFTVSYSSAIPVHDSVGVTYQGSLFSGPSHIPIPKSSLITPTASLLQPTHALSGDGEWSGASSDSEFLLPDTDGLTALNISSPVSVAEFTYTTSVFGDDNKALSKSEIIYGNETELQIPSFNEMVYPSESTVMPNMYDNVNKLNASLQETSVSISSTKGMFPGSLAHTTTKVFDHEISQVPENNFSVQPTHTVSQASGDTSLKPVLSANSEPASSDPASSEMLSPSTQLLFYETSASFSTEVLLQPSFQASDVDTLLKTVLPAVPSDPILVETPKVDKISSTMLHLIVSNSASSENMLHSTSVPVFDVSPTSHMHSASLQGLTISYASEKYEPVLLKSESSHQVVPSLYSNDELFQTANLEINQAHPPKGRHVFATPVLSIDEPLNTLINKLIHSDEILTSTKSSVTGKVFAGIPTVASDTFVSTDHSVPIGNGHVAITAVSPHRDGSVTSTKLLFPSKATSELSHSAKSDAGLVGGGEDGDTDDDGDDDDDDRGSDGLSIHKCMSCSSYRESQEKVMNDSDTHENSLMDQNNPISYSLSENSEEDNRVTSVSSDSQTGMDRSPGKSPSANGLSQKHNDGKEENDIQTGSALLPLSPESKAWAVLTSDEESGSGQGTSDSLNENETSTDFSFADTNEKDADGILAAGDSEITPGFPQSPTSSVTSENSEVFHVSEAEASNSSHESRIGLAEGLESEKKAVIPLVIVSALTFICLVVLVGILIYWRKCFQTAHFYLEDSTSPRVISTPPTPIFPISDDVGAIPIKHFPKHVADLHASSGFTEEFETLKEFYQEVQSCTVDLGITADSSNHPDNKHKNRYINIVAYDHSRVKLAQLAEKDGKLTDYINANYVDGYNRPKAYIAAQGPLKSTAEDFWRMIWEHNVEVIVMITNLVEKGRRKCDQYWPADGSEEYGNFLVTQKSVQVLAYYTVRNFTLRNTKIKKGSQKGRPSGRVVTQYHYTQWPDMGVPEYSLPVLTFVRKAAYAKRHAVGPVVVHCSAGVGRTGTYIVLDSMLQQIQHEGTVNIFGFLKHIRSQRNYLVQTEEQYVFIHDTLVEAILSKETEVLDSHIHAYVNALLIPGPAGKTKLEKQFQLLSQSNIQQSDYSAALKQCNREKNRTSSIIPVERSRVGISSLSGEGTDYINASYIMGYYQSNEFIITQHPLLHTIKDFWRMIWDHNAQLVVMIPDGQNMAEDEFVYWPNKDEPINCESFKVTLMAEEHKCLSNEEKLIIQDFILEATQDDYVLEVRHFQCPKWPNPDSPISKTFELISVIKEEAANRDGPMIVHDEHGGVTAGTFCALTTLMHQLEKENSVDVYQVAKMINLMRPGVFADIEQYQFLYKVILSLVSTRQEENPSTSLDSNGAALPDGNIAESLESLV

binding result [1]: binds
B1: CNTN1 extracellular domain (receptor, human, UniProt Q12860 21-993, looked up)
chain: EFTWYRRYGHGVSEEDKGFGPIFEEQPINTIYPEESLEGKVSLNCRARASPFPVYKWRMNNGDVDLTSDRYSMVGGNLVINNPDKQKDAGIYYCLASNNYGMVRSTEATLSFGYLDPFPPEERPEVRVKEGKGMVLLCDPPYHFPDDLSYRWLLNEFPVFITMDKRRFVSQTNGNLYIANVEASDKGNYSCFVSSPSITKSVFSKFIPLIPIPERTTKPYPADIVVQFKDVYALMGQNVTLECFALGNPVPDIRWRKVLEPMPSTAEISTSGAVLKIFNIQLEDEGIYECEAENIRGKDKHQARIYVQAFPEWVEHINDTEVDIGSDLYWPCVATGKPIPTIRWLKNGYAYHKGELRLYDVTFENAGMYQCIAENTYGAIYANAELKILALAPTFEMNPMKKKILAAKGGRVIIECKPKAAPKPKFSWSKGTEWLVNSSRILIWEDGSLEINNITRNDGGIYTCFAENNRGKANSTGTLVITDPTRIILAPINADITVGENATMQCAASFDPALDLTFVWSFNGYVIDFNKENIHYQRNFMLDSNGELLIRNAQLKHAGRYTCTAQTIVDNSSASADLVVRGPPGPPGGLRIEDIRATSVALTWSRGSDNHSPISKYTIQTKTILSDDWKDAKTDPPIIEGNMEAARAVDLIPWMEYEFRVVATNTLGRGEPSIPSNRIKTDGAAPNVAPSDVGGGGGRNRELTITWAPLSREYHYGNNFGYIVAFKPFDGEEWKKVTVTNPDTGRYVHKDETMSPSTAFQVKVKAFNNKGDGPYSLVAVINSAQDAPSEAPTEVGVKVLSSSEISVHWEHVLEKIVESYQIRYWAAHDKEEAANRVQVTSQEYSARLENLLPDTQYFIEVGACNSAGCGPPSDMIEAFTKKAPPSQPPRIISSVRSGSRYIITWDHVVALSNESTVTGYKVLYRPDGQHDGKLYSTHKHSIEVPIPRDGEYVVEVRAHSDGGDGVVSQVKIS
notes: extracellular domain; Streptavidin tetramer in cell assays; ECD-Fc in SPR; also called contactin 1

binding result [2]: no binding
binding result [3]: no binding
B2: LRRC4B extracellular domain (receptor, human, UniProt Q9NT99 36-576, looked up)
chain: AGGGGVAVTSAAGGGSPPATSCPVACSCSNQASRVICTRRDLAEVPASIPVNTRYLNLQENGIQVIRTDTFKHLRHLEILQLSKNLVRKIEVGAFNGLPSLNTLELFDNRLTTVPTQAFEYLSKLRELWLRNNPIESIPSYAFNRVPSLRRLDLGELKRLEYISEAAFEGLVNLRYLNLGMCNLKDIPNLTALVRLEELELSGNRLDLIRPGSFQGLTSLRKLWLMHAQVATIERNAFDDLKSLEELNLSHNNLMSLPHDLFTPLHRLERVHLNHNPWHCNCDVLWLSWWLKETVPSNTTCCARCHAPAGLKGRYIGELDQSHFTCYAPVIVEPPTDLNVTEGMAAELKCRTGTSMTSVNWLTPNGTLMTHGSYRVRISVLHDGTLNFTNVTVQDTGQYTCMVTNSAGNTTASATLNVSAVDPVAAGGTGSGGGGPGGSGGVGGGSGGYTYFTTVTVETLETQPGEEALQPRGTEKEPPGPTTDGVWGGGRPGDAAGPASSSTTAPAPRSSRPTEKAFTVPITDVTENALKDLDDVMKTTK
notes: extracellular domain; ECD-Fc prey; also called NGL-3; netrin-G ligand-3
